Test results: the supplement of paper PMC10567573

B1: FEM1A (parent)
chain: PCCSSSPEEPLNGESYESCCPTSR

Variants of: B1
Assay: protein stability index of a GFP-peptide fusion (GPS, HEK-293T) (PSI 1-6); higher = more stable
Settings: c terminus: a fixed tail appended
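Note: lentivirally expressed fusions sorted by FACS into six bins by GFP to DsRed ratio, PSI derived from sequencing read proportions per bin multiplied by bin number.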

Protein stability index, by site and new letter:
T22: P 3.13 | D 4.61 | W 3.78 | K 3.79 | C 4.41 | Y 3.5 | N 3.9 | M 3.45 | G 3.53 | L 3.66 | I 3.38 | V 3.35
R24: D 5.19 | P 4.81 | Q 5.08 | L 4.81 | K 4.75 | H 4.75 | N 4.96 | W 3.05 | C 4.33
S23: M 4.05 | V 3.07 | N 4.1 | A 4.35 | T 4.13 | H 3.6 | I 3.53 | D 5 | W 3.43 | P 3.52 | Y 3.09
L11: M 3.79 | D 3.94 | T 4.11 | H 4.2 | K 3.77 | P 4.08 | R 3.93 | G 3.81 | I 3.72 | N 4.57 | A 4.52 | V 4.2 | Q 3.86 | W 2.82 | E 3.5 | C 3.54
S18: R 3.11 | F 2.89 | A 4.71 | I 3.03 | P 4 | Q 4.02 | T 4.19 | K 3.64 | C 4.24 | V 3.45 | H 3.74 | L 3.01 | E 4
E14: K 2.9 | Q 3.33 | A 3.77 | F 2.71 | N 3.66 | M 2.99 | W 2.57 | R 3.62 | H 3.81 | G 2.24 | C 2.86 | P 3.41
E8: N 3.35 | I 3.06 | L 2.81 | C 3.45 | Y 2.65 | M 2.48 | T 3.03 | R 2.88 | A 2.87 | W 1.63 | K 2.69 | D 3.51 | G 3.06
P1: N 3.96 | H 3.85 | A 4.21 | E 4.44 | K 2.47 | V 3.84 | S 3.54 | I 3.97 | R 3.47 | Q 3.95 | M 3.67
P10: L 3.41 | I 3.6 | E 3.7 | Y 3.14 | M 3.73 | D 4.17 | A 4.07 | T 3.1 | N 2.96 | Q 3.65
S15: K 3.68 | L 3.07 | N 3.62 | G 3.88 | T 2.69 | C 3.47 | D 4.61 | Y 3.17 | W 2.85 | M 3.12 | P 4.14 | R 3.51 | F 2.63 | V 3.81
E17: L 2.37 | P 3.7 | H 3.44 | T 3.56 | G 3.43 | C 4.12 | S 2.51 | W 1.72 | D 3.81
G13: N 3.46 | M 3.29 | L 3.63 | A 4.14 | D 4.43 | T 3.75 | Y 3.01 | I 3.42
S5: N 3.47 | T 3.9 | H 4.12 | Y 2.6 | Q 3.6 | W 3.02 | P 3.49 | M 2.53 | L 3.02 | V 4.45 | D 4.85 | E 4.24 | I 3.4
S4: I 3.81 | F 3.33 | M 3.19 | G 3.5 | W 3.85 | A 3.72 | Y 3.37 | Q 3.67 | H 4.21
N12: T 3.89 | F 3.01 | C 3.43 | A 3.71 | Y 3.96 | L 4.04 | D 4.86 | W 3.03 | G 3.88 | K 2.97 | V 3.58 | H 3.48
C20: Y 3.38 | S 4.14 | F 2.91 | E 4.24 | W 3.69 | L 3.7 | Q 3.54 | I 3.54 | N 4.35 | A 3.53 | M 3.18 | H 3.32
C2: T 5.23 | Y 4.62 | K 4.65 | E 4.77 | L 4.75 | V 5.21 | I 3.92 | P 5.66 | D 5.12 | F 4.55 | G 4.19 | S 4.21 | N 5.15 | M 4.98
Y16: E 4.69 | D 4.57 | K 3.68 | L 3.84 | W 3.2 | I 3.73 | T 4.37 | N 3.97 | S 3.7
P7: M 3.11 | D 4.65 | L 3.07 | T 3.29 | F 3.51 | W 2.44 | Q 4.44 | Y 3.02 | I 3.03
C19: N 3.67 | K 4.25 | T 3.56 | H 3.57 | I 3.72 | L 3.28 | E 4.54 | S 4.11 | Q 4.09 | M 3.49 | G 3.61 | V 3.89 | Y 3.72
E9: R 3.35 | F 2.87 | Q 3.52 | G 3.67 | W 2.02 | V 3.08 | K 3.41 | H 3.67 | T 3.34 | Y 2.77 | N 3.64
C3: H 4.85 | W 4.79 | Y 4.66 | E 5.27 | S 5.22 | L 4.76 | Q 5.4 | T 5.06 | F 4.83 | N 4.75 | R 4.23 | A 4.02 | D 5.82 | P 4.95 | V 5 | K 4.7
S6: F 3.13 | V 3.8 | W 3.27 | I 3.7 | D 3.92 | Y 2.97 | H 3.4 | T 3.93 | E 4.01 | Q 4.11 | M 3.57 | L 2.91 | P 3.76
P21: Y 3.01 | Q 4.17 | R 4.13 | F 3.04 | S 3.09 | G 3.78 | I 2.6 | C 3.92 | K 3.81 | E 4.19 | D 5 | N 3.81
